Laboratory results taken from US20140309404A1.

What was measured:
BMP-10 = assay: cell-based or functional assay
BMP-2 = assay: cell-based or functional assay
BMP-4 = assay: cell-based or functional assay
BMP-9 = assay: cell-based or functional assay
human BMP-5 (human) = human BMP-5 (human) (UniProt P22003); assay: cell-based or functional assay
human BMP-6 (human) [1] = target: human BMP-6 (human) (UniProt P22004); assay: cell-based or functional assay
human BMP-7 (human) [2] = target: human BMP-7 (human) (UniProt P18075); assay: cell-based or functional assay
Chain of human BMP-7 (human) (P18075 293-431 limits assumed): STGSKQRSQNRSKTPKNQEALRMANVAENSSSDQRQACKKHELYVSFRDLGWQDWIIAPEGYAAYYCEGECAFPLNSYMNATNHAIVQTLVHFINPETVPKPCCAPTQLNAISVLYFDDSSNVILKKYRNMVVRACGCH

human BMP-6 (human) [3] = target: human BMP-6 (human) (UniProt P22004); assay: SPR (BIAcore), BMP-6 immobilised on CM4 chip, antibody injected, 37 C
human BMP-7 (human) [4] = target: human BMP-7 (human) (UniProt P18075); assay: SPR (BIAcore), BMP-7 immobilised on CM4 chip, antibody injected, 37 C

Chain of human BMP-6 (human) (P22004 382-513 limits assumed): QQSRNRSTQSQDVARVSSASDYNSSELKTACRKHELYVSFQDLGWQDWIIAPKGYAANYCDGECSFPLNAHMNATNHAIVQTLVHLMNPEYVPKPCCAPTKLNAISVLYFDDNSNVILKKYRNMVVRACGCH
Chain of human BMP-5 (human) (P22003 317-454 limits assumed): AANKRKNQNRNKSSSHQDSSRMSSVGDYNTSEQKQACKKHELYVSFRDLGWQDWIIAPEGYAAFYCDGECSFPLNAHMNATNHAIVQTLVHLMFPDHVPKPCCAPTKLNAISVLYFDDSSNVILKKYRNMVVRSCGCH

| Mean % Inh at 1000 nM, BMP-10 induced Hep Luc Assay (BMP-10) | Mean % Inh at 1000 nM, BMP-2 induced Hep Luc Assay (BMP-2) | Mean % Inh at 1000 nM, BMP-4 induced Hep Luc Assay (BMP-4) | Mean % Inh at 1000 nM, BMP-9 induced Hep Luc Assay (BMP-9) | Mean % Inh at 1000 nM, BMP-5 induced Hep Luc Assay (human BMP-5 (human)) | Geometric Mean IC50 (nM), BMP-6 induced Hep Luc Assay (hepcidin promoter luciferase, HepProm Luc cells) (human BMP-6 (human) [1]) | Mean % Inh at 1000 nM, BMP-7 induced Hep Luc Assay (human BMP-7 (human) [2]) | Kd (human BMP-6 (human) [3]) | koff (human BMP-6 (human) [3]) | kon (human BMP-6 (human) [3]) | Kd (human BMP-7 (human) [4]) | koff (human BMP-7 (human) [4]) | kon (human BMP-7 (human) [4]) | Substance |
| --- | --- | --- | --- | --- | --- | --- | --- | --- | --- | --- | --- | --- | --- |
| -87.2% | -50.6% | -65.4% | -76.1% | -43.5% | 22.1 nM | 54.2% | 0.001 µM | 0.000187 s⁻¹ | 187000 M⁻¹ s⁻¹ | 0.0232 µM | 0.000793 s⁻¹ | 34200 M⁻¹ s⁻¹ | MAB507 (antibody) |
| 5.4% | 7.8% | 4.2% | 2.8% | 2.5% | – | -1.7% | – | – | – | – | – | – | human IgGPAA4 control (antibody) |
